Where a chain is given by its changes, count along the chain named. Square brackets hold non-standard residues; d marks the D form. Peptide text beside a SMILES is read from it. * marks the point of attachment. Dolaproine = CO[C@@H]([C@@H]1CCCN1)[C@@H](C)C(=O)O; Dil = CC[C@H](C)[C@H](NC)[C@@H](CC(=O)O)OC; X1 = C[C@@H](N*)[C@@H](O)c1ccccc1; NMeV = CN[C@H](C(=O)O)C(C)C
Key:
MDA-MB-231 = assay: In vitro killing by chimeric antibody-vc-MMAE conjugate (CellTiter-Glo, 120 h); format: cell-based; settings: MDA-MB-231 (120 h)
Protocol: (§1) The specific steps were: Colorectal cancer cells HCT116, breast cancer cells MDA-MB-231, prostate cancer cells PC3, MCF7 cells were respectively counted, adjusted to 3000 cells/well, and plated onto 96-well plates overnight; Conjugates were added at a final concentration of 8 nM to 0.000512 nM (a 5-fold dilution across 7 concentration points), totaling 200 µL, cultured at 37 °C in a CO2 incubator for 120 h, half of the medium (100 µL) was discarded, and 100 µL of CellTiter-Glo Luminescent Cell Viability assay reagent (Promega, cat # G7570) was added to detect signal values on a BMG microplate reader. The inhibition activity of antibody on tumor cell growth was calculated by graphpad fitting based on the signal value and antibody concentration, and the results are shown in FIG. 5 and Table 15. Table 15 IC50 value of anti-CDCP1 chimeric antibody -vcMMAE conjugate on tumor cells

HCT116 [1] = assay: as above; format: cell-based
Protocol: as §1

MCF7 [2] = assay: as above; format: cell-based; settings: MCF7 (120 h), cells that do not express CDCP1
Protocol: as §1

HCC1806 = assay: In vitro killing by humanized antibody-vc-MMAE conjugate (CellTiter-Glo, 120 h); format: cell-based
Protocol: (§2) The colorectal cancer cells HCT116 and breast cancer cells HCC1806 were counted separately, adjusted to 3000 cells/well and plated in 96-well plates overnight. Conjugates were added at a final concentration of 200 nM to 0.000512 nM (a 5-fold dilution across 9 concentration points), totaling 200 µL, cultured at 37°C in a CO2 incubator for 120 h, half of the medium (100 µL) was discarded, and 100 µL of CellTiter-Glo Luminescent Cell Viability assay reagent (Promega, cat # G7570) was added to detect signal values on a BMG microplate reader. The inhibition activity of antibody on tumor cell growth was calculated by graphpad fitting based on the signal value and antibody concentration, and the results are shown in FIGS. 6a and 6b and Tables 19 and 20. Table 19 DAR value of anti-CDCP1 humanized antibody-vc-MMAE conjugate and its IC50 value for HCC1806

HCT116 [3] = assay: as above; format: cell-based
Protocol: as §2

PC3 = assay: In vitro killing by chimeric antibody-vc-MMAE conjugate (CellTiter-Glo, 120 h); format: cell-based; settings: PC3 (120 h)
Protocol: as §1, with “[…],” for “cultured at 37 °C in a CO2 incubator for 120 h,”

MCF7 [4] = assay: as above; format: cell-based; settings: MCF7 (120 h), cells that do not express CDCP1; remark: listed apart in the source
Protocol: The inhibition activity of antibody on tumor cell growth was calculated by graphpad fitting based on the signal value and antibody concentration, and the results are shown in FIG. 5 and Table 15. Table 15 IC50 value of anti-CDCP1 chimeric antibody -vcMMAE conjugate on tumor cells

[5] = Drug : antibody ratio (DAR) of antibody-vc-MMAE conjugates by hydrophobic HPLC; settings: for DAR: chimeric antibody-vc-MMAE conjugates; for DAR2 (%): share of DAR2 species; for DAR4 (%): share of DAR4 species; for DAR6 (%): share of DAR6 species; for DAR8 (%): share of DAR8 species
Protocol: The specific operation was to reduce each antibody and the control antibody CD27H10 (27H10 antibody in WO2018112334A1) with a 2-fold molar amount of […] (TECP) at 4 °C for 1 hour. A 7-fold molar amount of vcMMAE was then added for ligation at 4-25 °C for 1 h, and then the reaction mixture was dialyzed against 1 × PBS pH 8.0 and filtered for sterilization. Drug : antibody ratio (DAR) was detected by hydrophobic kurtosis with HLPC, and the molecular coupling results are shown in Table 14. Table 14 DAR values of antibody-drug conjugates
The humanized antibodies 1CP-125, 1CP-117 and 1CP-152 were subjected to linking to form ADC, and the linking process was the same as in example 18. Table 18 DAR values of antibody-drug conjugates

HuCDCP1-C (human) = HuCDCP1-C (human) (UniProt Q9H5V8); assay: ELISA, HuCDCP1-C coated 2 ug/ml
HuCDCP1-B (human) = biological target: T1, HuCDCP1-B (human) (UniProt Q9H5V8); assay: ELISA, HuCDCP1-B coated 2 ug/ml
T1 sequence (looked up): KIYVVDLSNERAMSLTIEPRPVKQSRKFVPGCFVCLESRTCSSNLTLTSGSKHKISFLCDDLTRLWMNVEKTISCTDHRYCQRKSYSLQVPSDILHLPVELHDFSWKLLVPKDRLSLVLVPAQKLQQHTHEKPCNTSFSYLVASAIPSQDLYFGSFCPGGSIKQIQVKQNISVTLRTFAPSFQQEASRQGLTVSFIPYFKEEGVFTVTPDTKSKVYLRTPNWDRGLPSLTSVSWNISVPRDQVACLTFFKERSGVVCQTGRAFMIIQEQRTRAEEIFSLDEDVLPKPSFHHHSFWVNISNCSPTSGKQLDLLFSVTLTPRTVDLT

CC[C@H](C)[C@@H]([C@@H](CC(=O)N1CCC[C@H]1[C@H](OC)[C@@H](C)C(=O)N[C@H](C)[C@@H](O)c1ccccc1)OC)N(C)C(=O)[C@@H](NC(=O)[C@@H](NC)C(C)C)C(C)C [MMAE] (H-[NMeV]V[Dil][Dolaproine]-X1)
IC50 (MDA-MB-231): 0.168 nM
IC50 (HCT116 [1]): 0.108 nM
IC50 (MCF7 [2]): 0.0777 nM
IC50 (HCC1806): 0.053 nM
IC50 (HCT116 [3]): 0.283 nM
IC50 (PC3): 0.00101 nM

B1: G10F6-MMAE (conjugate)
VH: EVKLVESGPGILQPSQTLSLTCSFSGFSLSTSGMGVSWVRQPSGKGLEWLAHIYWDDDKRYNPSLKGRLTISKDTPRNQVFLEITSVDTTDTATYYCARVPGNWDEDAMDYWGQGTTVTVSS
VL: DIQMTQSPLSLPVSLGDQASISCRSSQNIVHTNGNTYLEWYLQKVGQSPKLLIYKVSNRFSGVPDRFSGSGSGTDFTLKISRVEAEDLGVYYCFQGSHVPYTFGGGTKLEIK
IC50 (MCF7 [4]): > 200 nM
DAR [5]: 3.6
DAR2 (%) [5]: 32.59%
DAR4 (%) [5]: 35.66%
DAR6 (%) [5]: 12.02%
DAR8 (%) [5]: 10.04%

B2: SB7 (antibody, V domains shown)
VH: QVQLQQSGPELVSPGESVKISCKGSGYTFTDYAVHWVKQSHSKSLEWIGVKSVYYGITKYSQNFKDKATMTVDKSSSTAYMELARLTSEDSAIYYCARDSYGSSRGYFDYWGQGTTLTVSS
VL: DIKMTQSPSSIYVSPGERVTITCKASQDINSFLSWFQQKPGKSPKTLIYRANRLVDGVPSRFSGSGSGQDYSLTISSLEYEDMGIYYCLQYDEFPRTFGGGTKLEIK
ELISA (HuCDCP1-C (human)): 0.034 nM

B3: SB5 (antibody, V domains shown)
VH: QVQLRESGPGLVAPSQSLSITCTVSGFSLTDFGVNWVRQPPGKGLEWLGIIWANGRIEYNSALKSRLSISKDNSRSQVFLKLNSLQTDDTARYYCARDHDYDVEAMDYWGQGTSVTVSA
VL: QIVLTQSPAIKSASPGEKVTMTCSASSSVIYMHWYQQKSGSSPKRWIYDTSKLASGVPVRFSGSGSGTSYSLTISTMEAEDAATYYCQQWSSYPPTFGGGTKVEIK
ELISA (HuCDCP1-B (human)): 0.208 nM
ELISA (HuCDCP1-C (human)): 0.413 nM

B4: SB1 (antibody, V domains shown)
VH: QVQLQQSGPDLVRPGESVKISCKGSGYTFTDHAIHWVRQSHAKSLEWIGVISFSYDNTKYNQNFKGKATMTVDKSSNTAYMELARLTSEDSAIYYCARDCYGSNRGYFDYWGQGTTLTVSS
VL: DIRMTQSPSSMYASLGERVTITCKASQDINRFLSWFLQRPGKAPKTLIYRANNLVEGVPSRFSGSGSGQDYSLIISNLEYEDMGIYYCLQYDEFPRTFGGGTKLEIK
ELISA (HuCDCP1-C (human)): 0.092 nM

B5: 10D2-MMAE (conjugate)
VH: EVQLQQSGPELKKPGETVKISCKASGYTFTDYSMHWVKQAPGKGLKWMGWINTETGQPTYADDFKGRFAFSLETSASSAYLQINNLKNEDTATYFCTRTFYYDYVGDYWGQGTTVTVSS
VL: DIVMTQSHKFMSTSVGDRVSITCKASQDVSTAVAWYRQKPGQSPKLLIYWASTRHTGVPDRLTGSGSGTDFALTINSVQAEDLALYYCQQHSSTPYTFGGGTKLEIK
DAR [5]: 3.5
DAR2 (%) [5]: 34.10%
DAR4 (%) [5]: 39.38%
DAR6 (%) [5]: 10.24%
DAR8 (%) [5]: 8.00%

B6: SB4 (antibody, V domains shown)
VH: QVQLQQSGAELVRPGTSVKISCKASGYTFTNYWLGWVKQRPGHGLEWIGDNYPGDNYRNFNEKFKGKATLTTDASSSTAYLQLSSLISEDSAVYFCTRSGGSRYYTMDYWGQGTSVTVSS
VL: DIVMTQAAFSNPVTLGTSASISCRSSRSLLHNNGITYLYWYLQKPGQSPQLLIYQMSNLASGVPDRFHSSGSGTDFTLSISRVEAEDVGVYYCAQNLDLPYTFGGGTKLEIK
ELISA (HuCDCP1-C (human)): 0.071 nM

B7: 6A7-MMAE (conjugate)
VH: EVQLKESGAELVRPGASVKVSCKASGYSFTSYWMNWVKQRPGQGLEWIGMIHPSDSETKLNQKFRDRASLTVDKSSSTAYMQLSSPTSEDSAVYYCTINYESFYYAMDYWGQGTTVTVSS
VL: DIVMTQSPASLAVSLGQRATISCRASKSVSTSGYSYMHWYQQKPGQPPKLLLYLASNLESGVPARFSGSGSGADFTLNIHPVEEEDAATYYCLHSRELPYTFGGGTKLEIK
DAR [5]: 3.6
DAR2 (%) [5]: 24.99%
DAR4 (%) [5]: 38.25%
DAR6 (%) [5]: 12.28%
DAR8 (%) [5]: 5.30%

B8: 8E5-MMAE (conjugate)
VH: EVQLKESGPELKKPGETVKISCKASGYTLTDFSMHWLKQAPGKGLKWMGWINTETGAPTYADDFKGRFALSLDTSANTAYLQINNLKNEDTATYFCSRGRDYDPHFDYWGQGTTVTVSS
VL: EIVLTQSPATLSVTPGDRVSLSCRASQSISDFLHWYQQRSHESPRLLIKYASQSISGIPSRFGGSGSGSDFTLNINTVEPEDVGMYYCQSAHSFPYTFGGGTKLEIK
IC50 (MCF7 [4]): ~200 nM
DAR [5]: 3.65
DAR2 (%) [5]: 32.01%
DAR4 (%) [5]: 37.12%
DAR6 (%) [5]: 11.15%

B9: 3C11-MMAE (conjugate)
VH: EVQLQQSGTVLARPGASVKMSCKASGYNFISYWLHWIKQRPGQGLEWIGGIYPGNTDTTYNQKFKGKAKVTAVTSATTAYMELSSLTNEDSAVYYCIRYDYDRGMDYWGQGTTVTVSS
VL: DIQMTQSPSSFSVSLGDRVTITCRASEDIYYRLAWYQQKPGNAPRLLISGATALETGVPSRFSGSGSGKDYTLSITSLQTEDVATYYCQHYWNIPWTFGGGTKLEIK
DAR [5]: 3.48
DAR2 (%) [5]: 33.89%
DAR4 (%) [5]: 28.50%
DAR6 (%) [5]: 8.28%
DAR8 (%) [5]: 9.09%

B10: 3B 12H5-MMAE (conjugate)
VH: EVQLQQSGTVLARPGASVKMSCKASGYSFTIYWVHWVKQRPGQGLEWIGAVYPGNDDTSYNQNFKGKAKLTAVTSATTAYMELSSLTIDDSAVYYCTRHTYDEVFDYWGQGTTVTVSS
VL: B9 VL with Q3V, F11L, R24K, A51G, A53N, T56A, V58I, T85I, I94T
DAR [5]: 3.2
DAR2 (%) [5]: 29.966%
DAR4 (%) [5]: 37.81%
DAR6 (%) [5]: 7.324%
DAR8 (%) [5]: 1.741%

B11: SB6 (antibody, V domains shown)
VH: QGQMQQSGAELVKPGASVKLSCKTSGFTFNSSYITWLKQKPGQSLEWIAWIFAGTGGTYYNEKFTDKAQLTVDTTSSTAYMQFSSLTTEDSAIYYCARHGLGYDYWGQGTTLTVSS
VL: SIVMTQTPKFLLVSAGDRVTITCKASQSVNTDVAWYQQKSGQSPKLLIYSASNRYTGVPDRFTGSGYGTDFTFTISTVQAEDLAVYFCQQDHSSPPWTFGGGTKLEIK
ELISA (HuCDCP1-C (human)): 0.027 nM

From patent EP4524159A1, “ANTIBODY AND USE THEREOF” (Sichuan Huiyu Pharmaceutical Co., Ltd., priority 2022, dated 2023)
